The source of these data is article PMC2572730, “Structural Basis for the Recognition of Histone H4 by the Histone-Chaperone RbAp46” (Structure(London, England:1993), 2008).

Test [1] concerns the target T1, RbAp46 (Homo sapiens, UniProt Q16576).
T1 construct: His-tag (cleaved yes); made in house; host or cells: insect cells (baculovirus)
Description: Reciprocal pull-down of 35S-labeled RbAp46 with GST-histone H4 (1–48) mutants. It counts as binding. The following applies: autoradiogram, 300 mM NaCl, 20 mM Tris pH 8.0, 5 mM DTT, 0.1% (v/v) NP-40. The text has this:
Figure 2 Histone H4 Recognition by the RbAp46-Binding Pocket (A) Electrostatic surface potential of RbAp46 contoured and color coded at −91 kT (red) and +91 kT (blue). […] The histone H4 peptide is shown as a stick model. The histone H4-binding pocket in RbAp46 is mainly formed by the negatively charged PP loop (which terminates in Pro-362 and Pro-363) and a hydrophobic surface on the N-terminal α helix (helix 1). The interaction of histone H4 residues (Gln-27, Lys-31, Ile-34, Arg-35, Arg-36, Leu-37, Arg-39, and Arg-40) is shown. (B) Detailed view showing the interactions of the hydrophobic Ile-34 and Leu-37 histone H4 residues with Phe-29 and Leu-30 in helix 1 of RbAp46, as well as the positively charged Arg-36, Arg-39, and Arg-40 histone H4 residues with the backbone carbonyl groups in the PP loop and a cluster of acidic residues (Glu-356, Asp-357, and Asp-360) in RbAp46. […] In each experiment, the input lane contains 30% of the ^35S-labeled RbAp46 protein used in each of the pull-down assays. The experiments were carried out in 300 mM NaCl, 20 mM Tris (pH 8.0), 5 mM DTT, and 0.1% (v/v) NP-40.
Recombinant histone H4 and RbAp46 proteins were expressed and purified as described previously ([Verreault et al., 1998; Berger et al., 2004]). Detailed procedures for the generation of the RbAp46/histone H4 peptide and recombinant histone H4 complexes can be found in the Supplemental Data. Recombinant full-length (Xenopus lavis) histones H3 and H4 were expressed, purified, and refolded as described ([Luger et al., 1997]). For the binding experiments, histones H3/H4 and lysozyme (Sigma) were crosslinked to DynaBeads (Dynal Biotech) according to the manufacturer's recommendations. RbAp46 and histone H4 mutants were generated by using the QuikChange Site-Directed Mutagenesis kit (Stratagene). The RbAp46 mutants were expressed by using a Rabbit Reticulocyte Cell Free system (Promega).

Test [2] concerns the target T1, RbAp46. The test is described as follows: BS3 chemical crosslinking with RbAp46. Format: binding. The following applies: BS3 crosslinker; 1.1 M NaCl, 20 mM HEPES pH 7.5, 10 mM DTT; ∼10 μM protein; room temperature 30 min; NuPAGE, Coomassie and anti-H3/anti-H4 immunoblot. The source says:
Figure 4 Interaction of Histones H3 and H4 with RbAp46 (A) Comparison of chemical crosslinking of histones H3 and H4 in the absence and presence of RbAp46. Three different 4%–12% NuPAGE gels were either (i) stained with Coomasie blue or blotted with (ii) anti-histone H4 or (iii) anti-histone H3 antibodies. By themselves, histones H3 and H4 appear to form a H3/H4 heterodimer (∼25 kDa), an H3_2 homodimer (∼30 kDa), and an H3_2/H4_2 heterotetramer (∼50 kDa), indicated by arrowheads. In the presence of RbAp46, two bands, which both contain histones H3 and H4 (also indicated by arrowheads), can be seen in positions roughly corresponding to the interaction of RbAp46 with histone H3/H4 dimers and tetramers (∼65–75 kDa). […] The fractions were collected and analyzed on 4%–12% NuPAGE gels.
RbAp46/H3/H4 crosslinking was performed by using the BS^3 crosslinker (Pierce) in 1.1 M NaCl, 20 mM HEPES (pH 7.5), and 10 mM DTT. Freshly prepared BS^3 stock solution, 3% (w/v), was diluted 1/5, 1/10, 1/20, 1/50, and 1/100 with distilled water, and 1 μl of the resulting solution was mixed with 10 μl of ∼10 μM RbAp46, recombinant histone H3/H4, or RbAp46/H3/H4 prior to incubation at room temperature for 30 min. […] The proteins were analyzed on separate 4%–12% NuPAGE gels, one for Coomassie blue staining and one for each Western blot with either anti-histone H3 (Abcam) or anti-histone H4 (A.V.) antibodies.

The test system of test [3] is RbAp46 or RbAp48. The conditions noted are these: ref Verreault et al., 1998; cited from earlier work.

T1 sequence (Q16576 whole entry): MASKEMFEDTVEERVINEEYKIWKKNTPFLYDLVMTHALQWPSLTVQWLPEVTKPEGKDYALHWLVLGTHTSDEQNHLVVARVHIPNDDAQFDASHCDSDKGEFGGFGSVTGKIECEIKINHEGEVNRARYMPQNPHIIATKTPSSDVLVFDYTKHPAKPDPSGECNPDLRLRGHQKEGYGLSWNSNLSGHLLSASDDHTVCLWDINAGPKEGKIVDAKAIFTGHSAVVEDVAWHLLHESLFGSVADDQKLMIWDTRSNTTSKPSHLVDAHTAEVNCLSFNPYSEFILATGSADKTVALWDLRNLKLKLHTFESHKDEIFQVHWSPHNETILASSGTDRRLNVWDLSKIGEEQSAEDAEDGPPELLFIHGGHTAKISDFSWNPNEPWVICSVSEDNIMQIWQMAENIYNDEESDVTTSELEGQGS

In the case of “I34T + L37D + R35S: GST-histone H4 (1–48) mutated in residues interacting with both helix 1 and the charged PP loop”, the “Effect of histone H4 mutation on binding to RbAp46” value in test [1] is “disrupt the binding”. Same read-out and setting: with “L37D + R39V + R40N: GST-histone H4 (1–48) mutated in residues interacting with both helix 1 and the charged PP loop” the entry was “disrupt the binding”; with “R39V + R40N: GST-histone H4 (1–48) mutated in residues interacting with the charged PP loop”, “disrupt the binding”.

“lysozyme: positively charged lysozyme protein (Sigma), negative control”: the “Crosslinked species with RbAp46” value in test [2] is “no crosslinked species”.

For the substance “residues 15–41 of histone H4: residues 15–41 of histone H4, sufficient for recognition by RbAp46 or RbAp48 (earlier studies)”, the “Recognition by RbAp46 or RbAp48” value in test [3] was “sufficient for recognition by either RbAp46 or RbAp48”.
